The results in this text go back to paper PMC3448684, “IP-FCM Measures Physiologic Protein-Protein Interactions Modulated by Signal Transduction and Small-Molecule Drug Inhibition” (PLoS ONE, 2012).

Test [1] deals with T1, IL-2 (Homo sapiens, UniProt P60568, C145S).
T1 construct: gene IL2; recombinant human IL-2 (Proleukin); with CD25 (IL-2 receptor α-chain; recombinant human CD25-Fc chimera, or endogenous CD25 from PBMC lysate)
In words: IP-FCM bead assay of the IL-2:CD25 interaction with recombinant proteins (also with endogenous CD25 captured from PBMC lysate). In kind it is biochemical.

Test [2] deals with recombinant human CD25-Fc chimera (human) (UniProt P01589). In words: IP-FCM (capture on antibody beads, detection by flow cytometry); CD25-Fc captured on anti-CD25 CML beads overnight, washed; IL-2 (1,000 U/ml) added for 1 h with or without Ro-26-4550 or control compounds; washed, probed with anti-IL-2.
For test [3] the target is unchanged. Put plainly: IP-FCM (capture on antibody beads, detection by flow cytometry); data not shown: as a4 with recombinant CD25, but 500 U/ml or 10,000 U/ml IL-2. (In general: Flow cytometry measures light scatter and fluorescence of single cells or particles in a stream.)

Sequence of recombinant human CD25-Fc chimera (human) (P01589 22-240, change not shown): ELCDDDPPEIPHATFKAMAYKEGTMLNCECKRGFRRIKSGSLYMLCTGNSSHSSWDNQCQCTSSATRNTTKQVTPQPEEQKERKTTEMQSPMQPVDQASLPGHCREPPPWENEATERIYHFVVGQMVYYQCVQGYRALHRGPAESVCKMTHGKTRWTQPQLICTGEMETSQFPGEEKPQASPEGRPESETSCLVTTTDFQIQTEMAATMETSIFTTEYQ
Sequence of recombinant human IL-2 (Proleukin) (P60568 21-153): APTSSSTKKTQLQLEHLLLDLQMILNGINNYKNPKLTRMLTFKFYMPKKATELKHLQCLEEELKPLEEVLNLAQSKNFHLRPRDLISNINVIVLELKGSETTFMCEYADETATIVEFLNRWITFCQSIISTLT
T1 sequence (P60568 22-153 C145S): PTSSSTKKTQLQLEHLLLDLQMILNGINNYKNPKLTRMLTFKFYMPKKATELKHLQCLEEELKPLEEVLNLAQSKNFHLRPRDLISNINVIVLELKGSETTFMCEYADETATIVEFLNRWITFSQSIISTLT
T1 sequence (P01589 22-272 partner): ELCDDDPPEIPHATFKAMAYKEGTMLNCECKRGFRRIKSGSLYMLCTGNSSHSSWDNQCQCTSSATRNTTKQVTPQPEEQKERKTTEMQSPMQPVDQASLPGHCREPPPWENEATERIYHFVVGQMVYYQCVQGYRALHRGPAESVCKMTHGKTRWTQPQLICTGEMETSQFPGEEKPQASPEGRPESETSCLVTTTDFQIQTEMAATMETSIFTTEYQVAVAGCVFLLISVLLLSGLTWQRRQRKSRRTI

Ro-26-4550 [R26]: the “% reduction of IL-2:CD25 binding at 10 μM (Methods; printed as 10 mM in Results)” value in test [1] is 62 % reduction of IL-2:CD25 binding at 10 µM (Methods; printed as 10 mM in Results).
As to “recombinant human IL-2 (Proleukin) (from UniProt P60568 21-153) (ligand)”, the percent reduction of binding with Ro-26-4550 (10 mM [sic]), 1,000 U/ml IL-2 in test [2] is 62%. The percent reduction of binding with Ro-26-4550, 10,000 U/ml IL-2 in test [3] came to 44%.
